As a reminder, the stoichiometry N is the number of molecules, sites or subunits per partner or assembly.

Read-outs that look alike come from different tables or passages of the source.

Consider 1 substance from publication PMC5942590.

The target of experiment [1] is HSV-1 glycoprotein B construct gBΔ71 (residues 72-904) (Herpes Simplex Virus type 1 (HSV-1)) (UniProt P06437). As to the kind of experiment: crystal structure.
The target is the same in experiment [2]. As to the kind of experiment: crystal structure. The source holds these as a separate data set.

Regarding “HSV-1 glycoprotein B construct gBΔ71 (residues 72-904) (from UniProt P06437 72-904) (natural protein)”, the stoichiometry N in experiment [1] and in experiment [2] was 3 each time.
